Source: patent US5763571, “Inhibiting protein interactions” (The General Hospital Corporation, dated 1998)
No end group written: not given here.

Target: GST-Raf(1-257) (human)
Assay: peptide competition of Ras-GTP / GST-Raf co-precipitation

Question: EDSYRKQVVIDGETC (not fully specified (N-terminus, C-terminus)) [Ras 37-51 peptide] was tested. Which IC50 did it give?
Answer: Its IC50 is 100 µM.
